In patent publication US20240010701A1:

Legend:
FcγIIIaV158F (human) [1] = molecular target: FcγIIIaV158F (human) (UniProt P08637); assay: SPR (Biacore 8K), 25° C, antibody captured on nectin-4-coated chip, receptor ECD as analyte, steady-state analysis
hFcγIIIa (human) [2] = molecular target: hFcγIIIa (human) (UniProt P08637); assay: as above
FcγIIIaV158F (human) [3] = molecular target: FcγIIIaV158F (human) (UniProt P08637); assay: SPR (Biacore 8K), 25° C, ADC captured on nectin-4-coated chip, receptor ECD as analyte, steady-state analysis
hFcγIIIa (human) [4] = molecular target: hFcγIIIa (human) (UniProt P08637); assay: as above

For “DRUG B (enfortumab similar antibody that specifically binds human nectin-4)”, the Kd (FcγIIIaV158F (human) [1]) was 0.983 µM and the Kd (hFcγIIIa (human) [2]) was 0.316 µM.
Work on “DRUG C (enfortumab vedotin similar antibody-drug conjugate)” yielded a Kd (FcγIIIaV158F (human) [3]) of 1.21 µM and a Kd (hFcγIIIa (human) [4]) of 0.429 µM.
